We go through two substances from PMC12133298.

The data set has as its system Rho Y80C (Escherichia coli). The data set can be described thus: EMSA. To be noted: 37 C, 1 mM ATP, 25 mM Tris-Cl pH 8.0, 50 mM KCl, 5 mM MgCl2, 1 mM DTT, 37 C (or 4 C), 15 min, 0.8% agarose 0.5x TBE, 5 nM DNA.

The term Kd denotes the equilibrium constant for the complex coming apart.

The substance pBR322 displayed a binding signal (fold weaker than WT) of 7. With 3.5 kb linear dsDNA, the Kd (5 mM Mg2+) came to 0.18 µM.
